{"source": "paper PMC4846438", "about": "“The crystal structure of human dopamine β-hydroxylase at 2.9 Å resolution” (Science Advances, 2016)", "proteins": {"B1": {"name": "soluble human dopamine β-hydroxylase, residues 40 to 617, FLAG-tagged (enzyme, UniProt P09172 40-617, looked up)", "chain": "SAPRESPLPYHIPLDPEGSLELSWNVSYTQEAIHFQLLVRRLKAGVLFGMSDRGELENADLVVLWTDGDTAYFADAWSDQKGQIHLDPQQDYQLLQVQRTPEGLTLLFKRPFGTCDPKDYLIEDGTVHLVYGILEEPFRSLEAINGSGLQMGLQRVQLLKPNIPEPELPSDACTMEVQAPNIQIPSQETTYWCYIKELPKGFSRHHIIKYEPIVTKGNEALVHHMEVFQCAPEMDSVPHFSGPCDSKMKPDRLNYCRHVLAAWALGAKAFYYPEEAGLAFGGPGSSRYLRLEVHYHNPLVIEGRNDSSGIRLYYTAKLRRFNAGIMELGLVYTPVMAIPPRETAFILTGYCTDKCTQLALPPSGIHIFASQLHTHLTGRKVVTVLVRDGREWEIVNQDNHYSPHFQEIRMLKKVVSVHPGDVLITSCTYNTEDRELATVGGFGILEEMCVNYVHYYPQTQLELCKSAVDAGFLQKYFHLINRFNNEDVCTCPQASVSQQFTSVPWNSFNRDVLKALYSFAPISMHCNKSSAVRFQGEWNLQPLPKVISTLEEPTPQCPTSQGRSPAGPTVVSIGGGKG", "modifications": "glycosylation at Asn64, Asn184, Asn344 and Asn566; intermolecular disulfides C528-C530 and C530-C528 between the two chains of the dimer", "notes": "human dopamine β-hydroxylase, residues 40 to 617; the first 39 residues (signal anchor for type II membrane proteins) left out to obtain soluble DBH; the dimeric fraction was crystallised; A SeMet-labelled form was used for phasing only; also called DBH; dopamine β-monooxygenase; not shown: FLAG, C-terminal, kept"}}, "target": "the molecule itself", "assay": "SEC; Superdex 200 HR 16/60, 10 mM Hepes, 150 mM NaCl, pH 7.5, 1 ml/min; dimer and tetramer separated; they do not interconvert in the pH interval 4 to 9", "note": "Values joined by “and” are separate entries in the source; they are usually repeats but may differ in a detail not shown here. Equal entries are not always repeated.", "data": [{"protein": "B1", "values": [{"measurement": "stoichiometry N", "result": "2 and 4"}]}]}
